Experimental findings from patent US20080305116A1 (published 2008) are described below.

Usually Kd stands for the constant that tells how readily two partners part at equilibrium.

Residue numbers refer to the chain shown, from its start. Names may count otherwise.

First the molecules themselves.
T1: human CD154, soluble antigen (human, UniProt P29965 116-261, limits assumed)
T1 construct: KinExA uses 'soluble antigen'; also called CD40 ligand; CD40L
T1 sequence (looked up): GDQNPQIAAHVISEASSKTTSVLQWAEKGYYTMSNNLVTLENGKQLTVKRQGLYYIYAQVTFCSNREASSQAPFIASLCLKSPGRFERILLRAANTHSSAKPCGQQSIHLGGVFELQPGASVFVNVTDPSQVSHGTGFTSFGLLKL

T2: CD154 on D1.1 cells (human, UniProt P29965 1-261)
T2 sequence (looked up): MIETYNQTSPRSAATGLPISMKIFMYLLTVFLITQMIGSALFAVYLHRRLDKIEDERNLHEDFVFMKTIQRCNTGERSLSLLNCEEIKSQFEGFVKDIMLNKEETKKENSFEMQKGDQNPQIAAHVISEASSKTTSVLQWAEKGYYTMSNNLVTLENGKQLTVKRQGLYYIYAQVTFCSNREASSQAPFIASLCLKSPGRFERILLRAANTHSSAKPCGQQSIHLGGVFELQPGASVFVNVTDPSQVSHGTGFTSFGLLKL

B1: 5c8 Fab Mutant #14 (light chain S26D/Q27E) (Fab, V domains shown)
VH: QVQLVQSGAEVVKPGASVKLSCKASGYIFTSYYMYWVKQAPGQGLEWIGEINPSNGDTNFNEKFKSKATLTVDKSASTAYMELSSLRSEDTAVYYCTRSDGRNDMDSWGQGTLVTVSS
VL: DIVLTQSPATLSVSPGERATISCRADERVSSSTYSYMHWYQQKPGQPPKLLIKYASNLESGVPARFSGSGSGTDFTLTISSVEPEDFATYYCQHSWEIPPTFGGGTKLEIK
notes: also called double mutant
B2: 5c8 Fab Mutant #8 (light chain S31V) (Fab, V domains shown)
VH: B1 VH
VL: B1 VL with D26S, E27Q, S31V
B3: 5c8 Fab Mutant #7 (light chain Q27E) (Fab, V domains shown)
VH: B1 VH
VL: B1 VL with D26S
notes: also called Gln27Glu
B4: 5c8 Fab Mutant #15 (light chain S26D/Q27E/T33W) (Fab, V domains shown)
VH: B1 VH
VL: B1 VL with T33W
B5: 5c8 Fab Mutant #13 (heavy chain N59L) (Fab, V domains shown)
VH: B1 VH with N59L
VL: B1 VL with D26S, E27Q
notes: also called Asn59Leu
B6: 5c8 Fab Mutant #23 (heavy Y33W; light S26D/Q27E) (Fab, V domains shown)
VH: B1 VH with Y33W
VL: B1 VL
B7: 5c8 Fab Mutant #6 (light chain S26D) (Fab, V domains shown)
VH: B1 VH
VL: B1 VL with E27Q
notes: also called Ser26Asp
B8: 5c8 Fab Mutant #11 (heavy chain Y33F) (Fab, V domains shown)
VH: B1 VH with Y33F
VL: B1 VL with D26S, E27Q
B9: 5c8 Fab Mutant #10 (light chain Y54E) (Fab, V domains shown)
VH: B1 VH
VL: B1 VL with D26S, E27Q, Y54E
notes: also called Tyr54Glu
B10: 5c8 Fab Mutant #17 (heavy Y33W; light S26D/Q27E/T33W) (Fab, V domains shown)
VH: B1 VH with Y33W
VL: B1 VL with T33W
B11: 5c8 Fab Mutant #16 (heavy T30H; light S26D/Q27E) (Fab, V domains shown)
VH: B1 VH with T30H
VL: B1 VL
B12: 5c8 Fab Mutant #1 (heavy chain T30H) (Fab, V domains shown)
VH: B1 VH with T30H
VL: B1 VL with D26S, E27Q
B13: 5c8 Fab Mutant #9 (light chain T33D) (Fab, V domains shown)
VH: B1 VH
VL: B1 VL with D26S, E27Q, T33D
B14: 5c8 Fab Mutant #25 (heavy T30H/Y33W; light S26D/Q27E/T33W) (Fab, V domains shown)
VH: B1 VH with T30H, Y33W
VL: B1 VL with T33W
B15: 5c8 Fab Mutant #5 (light chain T33W) (Fab, V domains shown)
VH: B1 VH
VL: B1 VL with D26S, E27Q, T33W
B16: 5c8 Fab Mutant #18 (heavy T30H; light S26D/Q27E/T33W) (Fab, V domains shown)
VH: B1 VH with T30H
VL: B1 VL with T33W
B17: 5c8 Fab Mutant #2 (heavy chain Y33W) (Fab, V domains shown)
VH: B1 VH with Y33W
VL: B1 VL with D26S, E27Q
B18: 5c8 Fab Mutant #12 (heavy chain N59D) (Fab, V domains shown)
VH: B1 VH with N59D
VL: B1 VL with D26S, E27Q
notes: also called Asn59Asp
B19: 5c8 Fab Mutant #24 (heavy T30H/Y33W; light S26D/Q27E) (Fab, V domains shown)
VH: B1 VH with T30H, Y33W
VL: B1 VL
B20: 5c8 Fab Mutant #4 (heavy chain S54N) (Fab, V domains shown)
VH: B1 VH with S54N
VL: B1 VL with D26S, E27Q
B21: 5c8 Fab Mutant #22 (heavy T30H/Y33W/S54N; light S26D/Q27E/T33W) (Fab, V domains shown)
VH: B1 VH with T30H, Y33W, S54N
VL: B1 VL with T33W
B22: 5c8 Fab Mutant #21 (heavy T30H/Y33W/S54N; light S26D/Q27E) (Fab, V domains shown)
VH: B1 VH with T30H, Y33W, S54N
VL: B1 VL
B23: 5c8 Fab Mutant #26 (heavy T30H/S54N; light S26D/Q27E/T33W) (Fab, V domains shown)
VH: B1 VH with T30H, S54N
VL: B1 VL with T33W
B24: 5c8 Fab Mutant #20 (heavy S54N; light S26D/Q27E/T33W) (Fab, V domains shown)
VH: B1 VH with S54N
VL: B1 VL with T33W
B25: 5c8 Fab Mutant #3 (light chain Y36W) (Fab, V domains shown)
VH: B1 VH
VL: B1 VL with D26S, E27Q, Y36W
B26: 5c8 Fab Mutant #19 (heavy S54N; light S26D/Q27E) (Fab, V domains shown)
VH: B1 VH with S54N
VL: B1 VL
B27: 5c8 Fab Mutant #27 (heavy Y33W/S54N; light S26D/Q27E/T33W) (Fab, V domains shown)
VH: B1 VH with Y33W, S54N
VL: B1 VL with T33W
B28: 5c8 Fab Mutant #28 (heavy Y33W/S54N; light S26D/Q27E) (Fab, V domains shown)
VH: B1 VH with Y33W, S54N
VL: B1 VL

In one experiment the target is T1, human CD154, soluble antigen. The experiment is described as follows: assay not named in the sentence (the paragraph speaks of competitive ELISA). (An ELISA detects its analyte on a solid surface through an enzyme-linked reagent.)
With B1, the “fold higher affinity compared to the wildtype 5c8 Fab” value was 9 fold.

The target is the same in a further experiment. In words: ELISA-based competitive binding assay; unlabeled Fab against biotin-labeled 5c8 Fab competitor.
Take B1: the “ELISA fold-improvement over wildtype” value is 5.6 fold.

Take B2: the “ELISA fold-improvement over wildtype” value amounted to 0.02 fold.

As to B3, the “ELISA fold-improvement over wildtype” value was determined as 6.3 fold.

With B4, the “ELISA fold-improvement over wildtype” value is 3.8 fold.

In the case of B5, the “ELISA fold-improvement over wildtype” value came to 0.01 fold.

For the molecule B6, the “ELISA fold-improvement over wildtype” value stood at 5.2 fold.

In the case of B7, the “ELISA fold-improvement over wildtype” value was determined as 2.6 fold.

B8: the “ELISA fold-improvement over wildtype” value amounted to 0.05 fold.

Take B9: the “ELISA fold-improvement over wildtype” value was 0.06 fold.

As for B10, the “ELISA fold-improvement over wildtype” value is 5.9 fold.

For B11, the “ELISA fold-improvement over wildtype” value was found to be 5.8 fold.

For B12, the “ELISA fold-improvement over wildtype” value was 2.3 fold.

Regarding B13, the “ELISA fold-improvement over wildtype” value came out at 0.22 fold.

For B14, the “ELISA fold-improvement over wildtype” value turned out to be 5.6 fold.

Consider B15, for which the “ELISA fold-improvement over wildtype” value worked out at 5 fold.

As for B16, the “ELISA fold-improvement over wildtype” value came out at 5.4 fold.

Take B17: the “ELISA fold-improvement over wildtype” value was determined as 7 fold.

For the molecule B18, the “ELISA fold-improvement over wildtype” value was found to be 0.13 fold.

With B19, the “ELISA fold-improvement over wildtype” value is 8 fold.

Take B20: the “ELISA fold-improvement over wildtype” value came out at 2 fold.

Another experiment shares this target. In words: KinExA solution-phase equilibrium, Fab with soluble antigen.
For the molecule B1, binding was characterised by a dissociation constant (Kd) of 0.041 nM.

With B21, the Kd was found to be 0.055 nM.

The molecule B22 came in with a Kd of 0.101 nM.

In turn, B3 gave a Kd of 0.081 nM.

Molecule B4 returned a Kd of 0.044 nM.

Take B6: the dissociation constant Kd stood at 0.053 nM.

In the case of B7, the Kd is 0.142 nM.

Regarding B23, the affinity, expressed as Kd, was 0.063 nM.

B24 showed a dissociation constant Kd of 0.044 nM.

As to B10, the Kd was found to be 0.023 nM.

As for B11, binding was put at a Kd of 0.07 nM.

The molecule B25 gave a Kd of 0.42 nM. Compared with the last molecule, the Kd is about 6-fold higher.

B12: the Kd was determined as 0.307 nM. This Kd and that of the molecule before are within 1.5-fold of each other.

B26: the dissociation constant Kd was 0.065 nM.

Turning to B14, binding was put at a Kd of 0.012 nM.

Molecule B15 had a dissociation constant (Kd) of 0.158 nM. This Kd lies about 13-fold higher than the previous one.

Consider B16, for which binding was characterised by a dissociation constant (Kd) of 0.054 nM.

As to B27, binding was characterised by a dissociation constant (Kd) of 0.052 nM.

B17 showed a Kd of 0.169 nM.

With B28, binding was characterised by a dissociation constant (Kd) of 0.077 nM.

Regarding B19, the Kd was found to be 0.052 nM. This Kd and that of the molecule before are within 1.5-fold of each other.

The molecule B20 came in with an equilibrium dissociation constant (Kd) of 0.298 nM.

A further experiment shares this target. In words: assay not given.
On to B14, for which the “fold higher affinity compared to the wild type” value was found to be 25 fold.

The target of the next experiment is T2, CD154 on D1.1 cells. In words: cell-based or functional assay.
On to B1, for which the “IC50 (ug/ml), T cell-dependent B cell activation assay” value (“IC50 (ug/ml)” below) amounted to 0.287 µg/mL.

Turning to B10, the “IC50 (ug/ml)” value was 0.131 µg/mL.

With B14, the “IC50 (ug/ml)” value worked out at 0.165 µg/mL.
